# Laboratory results: US20110262347A1 (SALK INSTITUTE FOR BIOLOGICAL STUDIES, published 2011)
# No end group written: not given here. *: point of attachment. Biotin = O=C1N[C@H]2[C@H](CS[C@H]2CCCCC(=O)*)N1
# T1: p32 protein from mouse liver mitochondria extracts (mouse, UniProt O35658 71-278)
# T1 construct: Endogenous protein pulled down from detergent lysate of Balb/c mouse liver mitochondria; also called C1qBP; specific band below 36-kDa
# T1 sequence (looked up): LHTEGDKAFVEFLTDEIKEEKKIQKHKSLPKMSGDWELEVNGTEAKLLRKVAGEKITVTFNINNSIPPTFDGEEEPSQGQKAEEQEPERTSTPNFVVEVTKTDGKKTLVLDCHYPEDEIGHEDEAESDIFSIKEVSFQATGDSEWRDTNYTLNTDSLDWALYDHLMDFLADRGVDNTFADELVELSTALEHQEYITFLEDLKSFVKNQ
# T2: purified p32 protein
# T2 chain: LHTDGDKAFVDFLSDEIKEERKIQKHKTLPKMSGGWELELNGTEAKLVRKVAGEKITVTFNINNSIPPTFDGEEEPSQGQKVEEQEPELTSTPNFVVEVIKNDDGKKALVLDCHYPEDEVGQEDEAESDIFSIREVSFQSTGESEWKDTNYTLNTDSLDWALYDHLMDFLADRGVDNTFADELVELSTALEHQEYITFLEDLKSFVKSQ
# Key:
# [1] = biological target: T1, p32 protein from mouse liver …; experiment: pull-down from mitochondria extracts, mass spectrometry
# Protocol: Affinity chromatography. […] Gel bands excised from silver-stained gels were analyzed by MALDI-TOF mass spectrometry at the Burnham Institute for Medical Research Proteomics Resource.
# [2] = biological target: T2, purified p32 protein; experiment: comparison of the filing's CGKRK-p32 affinity with a literature value for LyP-1
# [3] = biological target: T2, purified p32 protein; experiment: saturation binding, ELISA-type: biotin-CGKRK on immobilized purified p32, streptavidin-HRP (FIG. 19)
binding result [1],fold affinity relative to LyP-1 [2] [fold],Kd [3] [µg/mL],Binder
binds,–,–,CGKRK (Synthetic pentapeptide; also called Cys-Gly-Lys-Arg-Lys; non-labeled CGKRK) [CGKRK peptide]
–,15,0.2,"Biotin-CGKRK (Labeled form used in the ELISA-type assays on p32-coated wells, detected with streptavidin-HRP; also called biotin-CGKRK; biotin CGKRK) [biotin-labeled CGKRK peptide]"
